Holding throughout (assay type): physicochemical
The nature of series [1]: Stability of marker solutions stored frozen at -10 to -20°C, followed by retention time at column calibration. Set-up: unit not given here. The settings on record: stored at -10° to -20°C. As to the method:
In addition, solutions of the markers were stored for up to 3 ½ months under various storage conditions (2-8 °C, -10 to -20°C, with/without azide).

Series [2] is described as follows: Circular dichroism, molar ellipticity (Jobin-Yvon CD spectrophotometer). Also on record: unit not given here. From the text: Circular dichroism - Structural similarity between the molecular weight markers and glatiramer acetate is a pre-requisite for an appropriate calibration of a molecular sizing column. Differences in polypeptide structure may result in different hydrodynamic size and consequently in altered retention time in the chromatographic system. The ellipticity, determined by circular dichroism, serves as a measure of the secondary structure of a polypeptide. When the ellipticity of the molecular weight markers and glatiramer acetate is similar, the structures of the two will be similar.
The molar ellipticity of the polypeptides was determined on a Jobin-Yvon CD spectrophotometer. […] Note that while the exact molecular weight for the TV-markers was plotted, the averace-by-number molecular weight for the glatiramer acetate was used in the plot.
(In general: Circular dichroism is widely used to follow secondary structure.)

Series [3] is described as follows: Stability of markers in solution at room temperature, followed by peak retention time on chromatography. The note with it: for Peak Retention Time, Average: average of the four analyses over 24 hours, room temperature; for Peak Retention Time: solution at room temperature, 0.1 mg/ml. As to the method:
Stability of markers in solution - TV-markers were chromatographed four times over a period of 24 hours. All markers were kept as solutions at room temperature and were analyzed at 8 hour intervals.

The mark [4] stands for this setting: date of calibration 04-step-97, interval 105 days.
The mark [5] stands for this setting: date of calibration 09-Jul-97, interval 48 days.
[6] abbreviates: date of calibration 22-May-97, interval -.
[7] abbreviates: 1st of four analyses at 8 hour intervals over 24 hours.
Setting [8] is: 2nd of four analyses at 8 hour intervals.
Where [9] appears, read: 3rd of four analyses at 8 hour intervals.
Setting [10] is: 4th of four analyses at 8 hour intervals.

B1: TV-77: 77-mer sequence-defined polypeptide molecular weight marker of Ala, Glu, Tyr, Lys, molecular weight = 8259 daltons (peptide)
chain: AKKYAKKEKAYAKKAEKAAKKAEAKAYKAAEAKKKAKAEAKKYAKAAKAEKKEYAAAEAKYKAEAAKAAAKEAAYEA
Consider B1, for which the RT in series [1] (setting [4]) was found to be 25.550; in series [1] (setting [5]), 25.617; in series [1] (setting [6]) it was 25.467. The “M-ellip. (210nm)” value in series [2] is reported as -4.8365. In addition, the “Peak Retention Time, Average” value in series [3] is reported as 26.746. Further, the “Peak Retention Time” value was 26.750 min in series [3] (setting [7]), 26.700 min in series [3] (setting [8]), 26.750 min in series [3] (setting [9]) and 26.783 min in series [3] (setting [10]).

B2: TV-109: 109-mer sequence-defined polypeptide molecular weight marker, molecular weight = 11727 daltons (peptide)
chain: AKKYAKKAEKAYAKKAKAAKEKKAYAKKEAKAYKAAEAKKKAKAEAKKYAKEAAKAKKEAYKAEAKKYAKAAKAEKKEYAAAEAKKAEAAKAYKAEAAKAAAKEAAYEA
For B2, the RT was 23.583 in series [1] (setting [4]), 23.650 in series [1] (setting [5]) and 23.500 in series [1] (setting [6]). Besides, in series [2], the “M-ellip. (210nm)” value is -6.818. The “Peak Retention Time, Average” value in series [3] is reported as 24.842. Also, the “Peak Retention Time” value in series [3] (setting [7]) is 24.783 min; in series [3] (setting [8]), 24.850 min; in series [3] (setting [9]), 24.883 min; in series [3] (setting [10]), 24.850 min.

B3: TV-66: 66-mer sequence-defined polypeptide molecular weight marker of Ala, Glu, Tyr, Lys, molecular weight = 7040 daltons (peptide)
chain: AKKYAKKEKAYAKAKKAEAKAAKKAKAEAKKYAKAAKAEKKEYAAAEAKYKAEAAKAAAKEAAYEA
B3: the values for the RT in series [1] (setting [4]), in series [1] (setting [5]) and in series [1] (setting [6]) were 26.300, 26.317 and 26.233, respectively. The “M-ellip. (210nm)” value in series [2] is -3.5172. Moreover, the “Peak Retention Time, Average” value in series [3] stood at 27.404. Moreover, the “Peak Retention Time” value in series [3] (setting [7]) stood at 27.400 min; in series [3] (setting [8]), 27.350 min; in series [3] (setting [9]), 27.433 min; in series [3] (setting [10]), 27.433 min.

B4: TV-86: 86-mer sequence-defined polypeptide molecular weight marker of Ala, Glu, Tyr, Lys, molecular weight = 9220 daltons (peptide)
chain: AKKYAKKEKAYAKKAEKAAKKAEAKAYKAAEAKKKAKAEAKKYAKAAKAEKKEYAAAEAKYKAEAAKKAYKAEAAKAAAKEAAYEA
As to B4, the RT is recorded as 24.950 in series [1] (setting [4]), 25.017 in series [1] (setting [5]) and 24.883 in series [1] (setting [6]). In addition, the “M-ellip. (210nm)” value in series [2] is recorded as -5.4546. In addition, the “Peak Retention Time, Average” value in series [3] is 26.129. Further, the “Peak Retention Time” value is listed as 26.117 min in series [3] (setting [7]), 26.100 min in series [3] (setting [8]), 26.150 min in series [3] (setting [9]) and 26.150 min in series [3] (setting [10]).

For the origin of these results see patent EP2239269B1, “Use of peptides derived from copolymer-1 as molecular weight markers” (YEDA RESEARCH AND DEVELOPMENT CO., LTD., priority 1998, dated 2013).
